The target in experiment [1] is human SIRPα on hSIRPα-expressing cells (human) (UniProt P78324). Nature of the experiment: flow cytometry, stably transfected CHO cells, antibody titrated, labelled anti-rat or anti-mouse IgG, MFI. (Flow cytometry measures light scatter and fluorescence of single cells or particles in a stream.)
Experiment [2] shares this target. In words: flow cytometry, stably transfected CHO cells, antibody titrated, labelled anti-human IgG, MFI.

A word on the EC50 (read off the curve): it is the concentration giving half of the maximal effect. Read a high EC50 (read off the curve) as a need for much substance.

B1: Antibody 4 (antibody, V domains shown)
VH: QVQLQESGPGLLKPSETLSLTCAVSDYSISSGYYWGWIRQPPGKGLEWIGSIYHSGNTYYNPSLKSRVTILVDTSKNQFSLKLSSVTAADTAVYYCARDKCSTTTCSFDYWGQGTLVTVSS
VL: DIQMTQSPSSLSASVGDRVTITCQASQDFSNYLNWYQQKPGKAPKLLIYAASNLETGVPSRFSGSGSGTDFTFTISSLQPEDIAVYYCQQYDNLPYTFGQGTKLEIK
In experiment [1], B1 showed a half-maximal effective concentration (EC50 (read off the curve)) of 1 µg/mL.

B2: Antibody 11 (antibody, V domains shown)
VH: EVQLVESGGGLVQPGGSLRLSCAASGFTFSSYWMHWVRQAPGKGLVWVSRIHNDGSRTSYADSVKGRFTISRDNAKNTLYLQMSSLRAEDTAVYYCTRDPPPYDILTGYPFDYWGQGTLVTVSS
VL: DIQMTQSPSSVSASVGDRVTITCRASQDISSWLAWFQQKPGKAPKLLIYGASSLQSGVPSRFSGSGSGTDFTLTISSLQPEDFATYYCQEANSFPYTFGQGTKLEIK
B2 yielded an EC50 (read off the curve) in experiment [1] of 0.1 µg/mL.

B3: Antibody 28 (antibody, V domains shown)
VH: QVQLQESGPGLVKPSGTLSLTCAVSGGSISSSNWWSWVRQPPGKGLEWIGEIYHSGSTNYNPSLKSRVTISVDKSKNQFSLKLSSVTAADTAVYYCARRGIWFGVGPWGQGTLVTVSS
VL: DIVMTQSPLSLPVTPGEPASISCRSSQSLLHGNGFNYLDWYLQKPGQSPQLLIYLGSNRASGVPDRFTGSGSGTDFTLKISRVEAEDVGVYYCMQGLQTPRTFGQGTKVEIK
B3: the EC50 (read off the curve) in experiment [2] was 0.2 µg/mL.

The values are drawn from patent US20230303685A1.
